We go through 10 molecules from patent US20100047264A1 (published 2010).

Assay [1] has as its target T1, free (non-NLP) HCV core protein (1-170) (hepatitis C virus (plasmid pCV-H77c), UniProt P27958 1-170).
T1 construct: range 1-170; also called HCV-C170; free HCV-C170; not shown: His6-tag fused at the C-terminus
T1 sequence: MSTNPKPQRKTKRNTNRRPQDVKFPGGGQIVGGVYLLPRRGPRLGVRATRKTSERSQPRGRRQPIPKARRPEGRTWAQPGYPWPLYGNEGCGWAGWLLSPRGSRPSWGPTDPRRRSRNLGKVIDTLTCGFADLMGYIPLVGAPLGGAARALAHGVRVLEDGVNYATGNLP
Put plainly: phage display panning (Ph.D.-7 library) on HCV-C170 adsorbed to a plate, 4 rounds, elution with target protein.

In assay [2] the target is T2, OmpF porin purified from Salmonella typhi (Salmonella typhi, UniProt Q56113 23-363).
T2 construct: also called S. typhi OmpF; OmpF antigen
T2 sequence: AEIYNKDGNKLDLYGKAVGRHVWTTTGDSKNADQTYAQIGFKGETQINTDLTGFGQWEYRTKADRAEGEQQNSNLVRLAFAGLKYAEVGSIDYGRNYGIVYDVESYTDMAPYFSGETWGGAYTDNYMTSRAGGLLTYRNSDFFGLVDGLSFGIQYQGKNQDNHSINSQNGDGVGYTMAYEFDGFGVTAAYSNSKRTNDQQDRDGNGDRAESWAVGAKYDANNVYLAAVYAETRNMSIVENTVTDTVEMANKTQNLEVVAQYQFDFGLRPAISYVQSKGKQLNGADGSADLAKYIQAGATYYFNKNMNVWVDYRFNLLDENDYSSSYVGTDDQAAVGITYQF
The assay can be described thus: phage display panning (Ph.D-7 library) on purified OmpF coated on an ELISA plate, 3 rounds.

Assay [3] concerns the target T1, free (non-NLP) HCV core protein (1-170). Put plainly: ELISA-type binding assay, free (non-NLP) HCV-C170 coated at 1 µg/ml, 2-fold serial dilution of PapMVCP-STASYTR, detected with rabbit anti-PapMV CP polyclonal. Background: ELISA stands for enzyme-linked immunosorbent assay.
The target in assay [4] is T3, HCV core protein (1-170) NLPs (hepatitis C virus (plasmid pCV-H77c), UniProt P27958 1-170).
T3 construct: range 1-170; also called HCV-C170 NLP; not shown: His6-tag fused at the C-terminus
T3 sequence: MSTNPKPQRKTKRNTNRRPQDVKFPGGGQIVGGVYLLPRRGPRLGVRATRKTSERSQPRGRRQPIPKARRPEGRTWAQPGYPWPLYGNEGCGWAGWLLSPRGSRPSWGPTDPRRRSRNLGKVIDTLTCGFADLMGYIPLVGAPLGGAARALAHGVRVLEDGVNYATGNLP
The assay can be described thus: ELISA-type binding assay, HCV-C170 NLP coated at 1 µg/ml, 2-fold serial dilution of PapMVCP-STASYTR, detected with rabbit anti-PapMV CP polyclonal.

Where no end group is shown, it is not given here.

Consider STASYTR (not fully specified) [HCV core affinity peptide STASYTR], for which the binding result in assay [1] is “binds”.

For NTPQGMT (not fully specified) [HCV core affinity peptide NTPQGMT], in assay [1], the binding result is recorded as “binds”.

In the case of HSPKNLH (not fully specified) [HCV core affinity peptide HSPKNLH], in assay [1], the binding result was “binds”.

Regarding GPSTPIR (not fully specified) [HCV core affinity peptide GPSTPIR], the binding result in assay [1] is “binds”.

Turning to FHENWPS (not fully specified) [OmpF affinity peptide FHENWPS], the binding result in assay [2] was “binds”.

Take FHEFWPT (not fully specified) [OmpF affinity peptide FHEFWPT]: in assay [2], the binding result is reported as “binds”.

B1: PapMVCP-STASYTR (VLPs of PapMV coat protein fused to the HCV core affinity peptide STASYTR and a histidine tag) (designed binder)
chain: MASTPNIAFPAITQEQMSSIKVDPTSNLLPSQEQLKSVSTLMVAAKVPAASVTTVALELVNFCYDNGSSAYTTVTGPSSIPEISLAQLASIVKASGTSLRKFCRYFAPIIWNLRTDKMAPANWEASGYKPSAKFAAFDFFDGVENPAAMQPPSGLTRSPTQEERIANATNKQVHLFQAAAQDNNFASNSAFITKGQISGSTPTIQFLPPPETSSTASYTRTRHHHHHH
notes: also called PapSTA; PapMV-STASYTR
Turning to B1, the binding result in assay [3] and in assay [4] was “binds” in each case.

SIQYTGV (not fully specified) [HCV core affinity peptide SIQYTGV]: the binding result in assay [1] is “binds”.

GVQIMGR (not fully specified) [HCV core affinity peptide GVQIMGR]: the binding result in assay [1] is given as “binds”.

Turning to NASSLRS (not fully specified) [HCV core affinity peptide NASSLRS], in assay [1], the binding result is “binds”.
